Source: patent publication US12636342B2, “TARS derived from Akkermansia muciniphila or fragment thereof, and use thereof” (KOREA RESEARCH INSTITUTE OF BIOSCIENCE AND BIOTECHNOLOGY, priority 2020, dated 2026)
Entries after “also recorded” stand apart in the source; their conditions may differ.

Assays:
[1] = system: mouse bone marrow-derived macrophages (BMDMs); assay: ELISA of immune cytokine secretion in LPS-treated BMDMs (inflammatory environment); type: cell-based; conditions: LPS-induced inflammatory environment, 24 h
Description: To determine whether AmTARS affects immune cytokine secretion when cellular inflammation was induced, mouse bone marrow-derived macrophages BMDMs as mouse-derived immune cells and human macrophages THP1 as human-derived immune cells were cultured by way of the same method as in Example 2.
Specifically, the cultured BMDMs and THP1 were treated with lipopolysaccharide (LPS) to induce an inflammatory response and were simultaneously treated with AmTARS at 0.1 μM, 0.2 μM, and 0.5 μM for 24 h to obtain cell cultures. The obtained cell cultures were analyzed for immune cytokine secretion by way of the same method as in Example 2.
Next, BMDMs were treated with LPS to create an inflammatory environment by way of the same method as in Example 3, and then treated with each TARS (AmTARS, BfTARS, eTARS, and hTARS) to investigate the secretion of IL-10.
An inflammatory environment was created through LPS in BMDMs by way of the same method as in Example 3, and then the cells were treated with the four types of fragments, and the immune cytokine secretion was determined by ELISA.

[2] = system: Raw 264.7 cells; assay: ELISA of immune cytokine secretion in LPS-treated Raw 264.7 cells; type: cell-based, mouse; conditions: Raw 264.7, LPS, 24 h
Description: Next, to determine whether the regulation of immune cytokine secretion by AmTARS in an inflammatory environment was induced by the two functional sites, the mouse-derived immune cell Raw 264.7 cells were treated with LPS to induce an immune response by the method as in Example 3, and treated with AmTARS, ΔU1AmTARS, and ΔU2AmTARS for 24 h separately to obtain cell cultures. The obtained cell cultures were analyzed for Immune cytokine secretion by way of the same method as in Example 2.

[3] = biological target: T1, TLR4 (Homo sapiens, UniProt O00206); assay: Pull-down assay with TLR4 in HEK 293T cells; type: binding; conditions: Strep-AmTARS and TLR4-FLAG
T1 construct: FLAG (C); expressed in transfected cells; host or cells: HEK 293T
T1 sequence (O00206 24-839): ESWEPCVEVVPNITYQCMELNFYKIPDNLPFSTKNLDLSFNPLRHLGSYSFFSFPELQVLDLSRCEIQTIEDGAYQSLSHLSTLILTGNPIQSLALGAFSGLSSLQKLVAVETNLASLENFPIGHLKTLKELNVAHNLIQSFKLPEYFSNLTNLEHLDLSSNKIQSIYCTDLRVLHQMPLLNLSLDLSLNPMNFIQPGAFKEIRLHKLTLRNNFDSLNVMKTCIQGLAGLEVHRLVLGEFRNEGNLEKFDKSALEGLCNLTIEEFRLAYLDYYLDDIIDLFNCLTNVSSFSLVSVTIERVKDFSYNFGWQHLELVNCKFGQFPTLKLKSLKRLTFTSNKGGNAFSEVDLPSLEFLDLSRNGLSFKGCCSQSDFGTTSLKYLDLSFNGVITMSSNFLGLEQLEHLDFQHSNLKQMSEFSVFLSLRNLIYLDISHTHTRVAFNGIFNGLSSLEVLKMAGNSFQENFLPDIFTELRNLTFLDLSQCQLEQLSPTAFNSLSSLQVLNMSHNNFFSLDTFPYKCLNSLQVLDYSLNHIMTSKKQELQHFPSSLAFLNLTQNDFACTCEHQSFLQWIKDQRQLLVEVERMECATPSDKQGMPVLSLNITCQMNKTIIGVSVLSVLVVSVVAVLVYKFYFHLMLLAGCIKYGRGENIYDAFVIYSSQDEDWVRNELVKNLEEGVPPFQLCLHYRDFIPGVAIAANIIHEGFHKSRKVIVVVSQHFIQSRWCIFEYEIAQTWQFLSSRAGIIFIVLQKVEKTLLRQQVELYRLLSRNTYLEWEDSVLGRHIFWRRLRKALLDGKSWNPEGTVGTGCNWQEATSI
Description: (A) AmTARS-interacting candidates identified from membrane protein interactome analysis. Potential interactors (receptors) involved in innate immunity are indicated in red. (B-D) Pull-down of Strep-AmTARS co-expressed with NLRX1-FLAG (B), CD163-FLAG (C), and TLR4-FLAG (D) in HEK 293T cells. Data shown are representative of three independent experiments, each with similar results.
Then, Strep-tagged AmTARS, AmTARS having deletions of two functional site (AmTARSΔ1Δ2), and FLAG-tagged TLR2 were transduced into human-derived HEK 293T cells through PEI, and thereafter, the cells were lysed using a lysis buffer containing 50 mM Tris-HCl (pH 7.5), 100 mM NaCl, 1% NP-40, 1 mM EDTA, 0.25% Na-deoxycholate, and a protease inhibitor cocktail. The cell lysates each were incubated with Strep Tactin beads and washed with a buffer containing 137 mM NaCl, 2.7 mM KCl, 10 mM Na2HPO4, 1.8 mM KH2PO4, and 1 mM EDTA, and proteins attached to the beads were eluted and analyzed by immunoblotting.

[4] = system: BMDMs from TLR2-KO mouse; assay: IL-10 production in BMDMs from TLR2 knock-out mice; type: cell-based
Description: The TLR2-dependent immune function of AmTARS was further corroborated using TLR2 knock-out (KO) mice. […] However, IL-10 production by […] (U1/U2) was abolished in BMDMs from TLR2-KO mice, providing further evidence that AmTARS regulates host immune cells via its unique regions in a TLR2-dependent manner (FIG. 28D).

[5] = system: BMDMs; assay: Immunoblotting of AmTARS/TLR2-induced signaling molecules in BMDMs; type: cell-based, mouse
Description: (A and B) Analysis of key molecules that inhibit the MAPK and PI3K/AKT signaling pathways. IL-10 produced by BMDMs pre-treated with inhibitors of ERK (PD98059, […]), p38 (SB203580, […]), MSK1/2 (SB747651A, 10 μM), CREB (666-15, 1 μM), PI3K (Wortmannin, 10 μM), and AKT1/2 (AKT1/2, 10 μM) for 1 h before treatment with either PBS or AmTARS for 24 h (n=6 per group) (A). Flow cytometry analysis of M2 macrophages in BMDMs pre-treated for 1 h with the indicated kinase inhibitors, before treatment with either PBS or AmTARS for 24 h (n=3 per group) (B). (C and D) Western blot analysis of MAPK signaling molecules in lysates of BMDMs (C) or THP1 cells (D) treated for different times with 0.5 μM AmTARS. (E) Western blot analysis of lysates of BMDMs pre-treated with α-IgG (Isotype, 1 μg ml-1) or α-TLR2 (1 μg ml-1) for 1 h before treatment with PBS, AmTARS (0.5 μM), or Pam3 (0.5 μM) for 30 min. (F and G) Western blot analysis of PI3K/AKT signaling molecules in lysates of BMDMs (F) or THP1 cells (G) treated with 0.5 μM AmTARS. (H) AmTARS activates both TLR2/1- and TLR2/6-mediated signaling. Activation of AKT, ERK, and CREB was measured by western blot analysis of lysates of THP1 cells pre-treated with α-IgG, α-TLR1, α-TLR2, or α-TLR6 (1 μg ml-1) for 1 h before treatment for 30 min with PBS or AmTARS (0.5 µM). Data shown in (A and B) are representative of three independent experiments, each with similar results (mean±SEM). P-values were calculated using an unpaired two-tailed Student's t-test. Data shown in (C-H) are representative and repeated at least three times.
Subsequently, we conducted immunoblotting assays to measure the time-dependent activation of AmTARS/TLR2-induced signaling molecules in both BMDMs and THP1 cells. AmTARS rapidly activated ERK, p38, and MSK1/2 within 15 min and, subsequently, phosphorylation of CREB at Ser133 (which is essential for IL-10 production) within 30 min in BMDMs (FIG. 31C) and THP1 cells (FIG. 31D). We then compared AmTARS-triggered TLR2 signaling with typical ligand-triggered signaling using Pam3CSK4 (the synthetic canonical TLR2/1 agonist, referred to hereafter as Pam3) in BMDMs stimulated for 30 min. […] By contrast, activation of NF-κB was greater in Pam3-treated BMDMs than in AmTARS-treated BMDMs (FIG. 31E).

interaction with TLR4 (pull-down) [3]: no interaction
B1: Akkermansia muciniphila-derived threonyl-tRNA synthetase (TARS) (protein)
chain: MSEHKERKTLEERQQMSDLERLRHSCAHVLATAICRLWPDAQLAGGPAVDNGFYYDVELDHRISTEDFERIEEEMKKVVKENQVFQKEVISRADAMKMAESGELGALGPRSEPSRFKIDLLNDIPEDEEISLYRNGDFTDLCAGPHVGRTGNCKAFKIMSVASAFYKGDKNRPMLQRIYGTCFPNRTQLDEHLERLEEARRRDHRKLGRELGLFCIDESVGQGLILWKPKGALIRRSLQDFITEELDKLGYSQVYTPNIGKLDLYRTSGHFPYYQESQYAPIPERDAMEKLSQEGASCAELFNGLATGTIEGYMLKPMNCPHHIKIYANDAHSYRDLPVRLAEFGTVYRWEQSGELGGMTRVRGFTQDDAHIFCTPDQLAGEIRQCLGIVKTIFGTLGMTDYRVRLSMRDPESDKYVGSPENWDKAEQALREAAEWLGADYSEEAGEAAFYGPKIDFIVRDAIGREWQLGTVQVDYNLPERFDLHYTGADNKPHRPVMVHRAPFGSMERFTGLLIEHFEGKFPTWLSPEQVRVLPISDKVTDVAAAHRTALAARGVRVTVDETPDKIGAKIRNARLDRVPYMLVLGQREAEDGTVSVRHRDKGDLGAMPFEQFADLVAREIAERHISPVI
modifications: Akkermansia muciniphila TARS
secretion of IL-6 [1]: suppressed; also recorded: reduced in a dose-dependent manner
secretion of IL-10 [1]: increased IL-10 levels; also recorded: increased in a dose-dependent manner; also recorded: increased in a protein concentration-dependent manner
secretion of TNF-α [1]: suppressed; also recorded: reduced in a dose-dependent manner
secretion of IL-6 [2]: reduced in a protein concentration-dependent manner
secretion of IL-10 [2]: increasingly secreted in an AmTARS concentration-dependent manner
secretion of TNF-α [2]: reduced in a protein concentration-dependent manner
IL-10 production [4]: did not induce IL-10 production
activation of CREB, AmTARS versus Pam3 ([5]; BMDMs stimulated for 30 min, 0.5 μM): significantly greater
time to activation of AKT ([5]; BMDMs, 0.5 μM AmTARS): ≤ 15 min
time to activation of ERK ([5]; BMDMs, 0.5 μM AmTARS): ≤ 15 min
time to activation of MSK1/2 ([5]; BMDMs, 0.5 μM AmTARS): ≤ 15 min
time to activation of PI3K ([5]; BMDMs, 0.5 μM AmTARS): ≤ 15 min
time to activation of p38 ([5]; BMDMs, 0.5 μM AmTARS): ≤ 15 min
time to inhibition of GSK3β activity (phosphorylation at Ser9) ([5]; BMDMs, 0.5 μM AmTARS): ≤ 15 min
time to phosphorylation of CREB at Ser133 ([5]; BMDMs, 0.5 μM AmTARS): ≤ 30 min
